The values below come from patent publication US20160194641, “G-RICH isoDNA SEQUENCES FORMING G-QUADRUPLEX STRUCTURE, THEIR FUNCTION AS [sequence] AND A PROCESS FOR THE PREPARATION THEREOF” (COUNCIL OF SCIENTIFIC & INDUSTRIAL RESEARCH, published 2016).

In this data set the target is thrombin (Bos taurus, UniProt P00735;P00735 P00735:318-366,P00735:367-625). Briefly: CD titration at 295 nm, low temperature, without K+; signal increases with thrombin; Tm with thrombin 22 C (53 C with K+). Conditions: tags: copies: 1; antiparallel unimolecular G4. The protocol: CD spectra were recorded on Jasco J-815 CD Spectrometer equipped with a Jasco PTC-424S/15 peltier system. 2 mm path-length quartz cuvettes were used for a sample volume 500 μl and strand concentration of 5 μM in 10 mM Na/K-phosphate buffer (pH 7.5) containing 100 mM NaCl/KCl respectively. Oligomers prepared in buffer were annealed by heating at 95° C. for 5 minutes, then slowly cooled to room temperature, followed by refrigeration for 5-6 hours before use. Spectral scans were collected over a wavelength range 200-320 nm at a scanning rate of 100 nm min⁻¹. The spectra were collected as an average of three scans for each sample.
Biochem. Biophys. Res. Commun. 352, 812-817 (2007). […] An increase in the CD signal amplitude upon incremental addition of thrombin is observed even at relatively low concentrations of thrombin. In case of isod-TBA-2 and isod-TBA-3, CD band at 295 nm and G-quadruplex structure was not evident in the absence of either thrombin or K⁺, which is also supported by ¹H NMR. Upon incremental addition of thrombin, the CD maximum at 295 nm emerges for isod-TBA-2 and isod-TBA-3. […] Further, the temperature-dependent stability of the quadruplex structure was followed by recording the CD amplitude at 295 nm with increasing temperature. The strength of d-TBA-1 G-quadruplex was the highest with Tₘ=22° C., followed by iso-d-TBA-3 (Tₘ 13° C.) and iso-d-TBA-2 (Tₘ<10° C.). […]

As for GGTTGGTGTGGTTGG (structured_DNA) [d-TBA-1], the binding result is on record as “binds”.
